This note sets out measurements from patent publication EP4755372A1, “POLYMERIC MICELLE […] POLYMER CHAIN OF SELF-A[…]” (INSTITUTE OF SCIENCE TOKYO, priority 2023, dated 2025).

Data set [1] in a line: SAXS measurement (Guinier plot particle size, Kratky plot). The class given is physicochemical. As to conditions: SAXS in aqueous solution, 10 mg/ml. As to the method:
(§1) For the previously obtained BZAm-PEGAn-CEAk(DOTA)j and PEGAn-CEAk(DOTA)j, the particle size was confirmed by Guinier plot in small angle x-ray scattering (SAXS), and SMDC formation was confirmed by Kratky plot. The particle size was also measured by transmission electron microscopy (TEM) and dynamic light scattering. The surface potential was also measured.
• Apparatus: nano-viewer SAXS system/Rigaku Corp. • Solvent: Ultrapure water or DMF • Sample concentration : 10 mg/ml • Measuring temperature: room temperature • Results: Fig. 12 and Fig. 13

Data set [2] is described as follows: Relaxivity measurement (r1, r2), 0.47T NMR. As to conditions: compared with Gd-DOTA, 37°C. The class given is physicochemical. As to the method:
Different polymer samples (Gd conc. 1 mM, 0.5 mM, 0.25 mM and 0.125 mM) were prepared, and the longitudinal relaxation time T1 and transverse relaxation time T2 were measured for each concentration. Using the obtained results, a plot of Gd concentration with respect to obtained relaxation time was drawn, and the longitudinal relaxivity r1 and transverse relaxivity r2 were derived from the slope of the fitted curve, based on the following formula. Here, (1/Ti)obs represents the measured relaxation time, and (1/Ti)d represents the relaxation time of the solvent. (1/Ti)obs = (1/Ti)d + ri [Gd]. i = 1, 2 [formula]
• Apparatus: Bruker minispec 0.47T NMR/Bruker • Solvent: Ultrapure water or BSA (10 mg/mL)-dissolved ultrapure water • Measuring conditions: Temperature: 37°C, receiver gain = 80-82, recycle delay = 2. • Results: Table 22

Data set [3] in a line: Evaluation of SMDC formation: DA from SEC-MALS in PBS and chloroform. The class given is physicochemical. To be noted: DA = MwPBS/MwCHCl3; 5 mg/mL, 40°C. How it is done: The foldability in water of BZAm-PEGAn-CEAk(DOTA)j obtained by the procedure described above was evaluated by comparing the absolute weight-average molecular weight Mw calculated from size exclusion chromatography in aqueous solution (PBS) and in an organic solvent (chloroform or DMF) and a system utilizing a multi-angle light scattering detector (SEC-MALS). Data obtained from SEC-MALS were analyzed using a Zimm plot, with dn/dc being the value calculated by measuring the refractive index of 4 different samples with different concentrations in each solvent (4, 3, 2 and 1 mg/mL). DA was calculated by the following formula. DA = MwPBS/MwCHCl3
• Apparatus: JASCO Extrema HPLC system (LC-Net II/ADC, Co-4060, AS-4050, PU-4180/JASCO Corp. • Detector: UV-4070/JASCO Corp., RI-4030/JASCO Corp., DAWN 8 MALS detector/Wyatt Technology Corporation • Column: OHpak SB-804HQ column/Showa Denko K.K. • (column size: 8 mm × 300 mm, pore size: 20 nm, particle size: 10 µm, exclusion limit: 1 × 10^6 g/mol) • OHpak SB-806 MHQ column/Showa Denko K.K. • (column size: 8 mm × 300 mm, pore size: 1.5 µm, particle size: 13 µm, exclusion limit: 2 × 10^7 g/mol) • OHpak SB-G 6B Guard column/Showa Denko K.K. • Mobile phase: 137 mM NaCl, 2.7 mM KCl, 11.9 mM phosphate buffer (PBS), pH 7.4 Temperature: 40°C • Flow rate: 1 mL/min • Sample concentration : 5 mg/mL • Results: Table 21
• Apparatus: TOSOH HLC-8220 GPC system/Tosoh Corp. • Detector: DAWN HELEOS II MALS detector/Wyatt • Column: LF-804 column/Showa Denko K.K. • (column size: 8 mm × 300 mm, pore size: 300 nm, particle size: 6 µm, exclusion limit: 2 × 10^6 g/mol) • LF-G guard column/Showa Denko K.K. • Mobile phase: chloroform • Temperature: 40°C • Flow rate: 1 mL/min • Sample concentration : 5 mg/mL • Results: Table 21

Data set [4] is described as follows: Pharmacokinetics test in CT26 tumor-bearing mice, Gd concentration by ICP-MS. Type of data set: in vivo. As to conditions: caudal vein, Gd conc. 5 mg/kg; for blood retentivity and blood clearance: CT26 tumor-bearing mice; for accumulation in different organs: liver, spleen, kidneys, brain, muscle, pancreas; for tumor accumulation (Gd concentration): 24-48 hours after administration for SMDC-Gd4. As to the method: A tumor-bearing model was prepared by subcutaneously transplanting CT26 mouse colorectal cancer cells into mice (Balb/c, 6-week-old, female, SLC), and the model was used for pharmacokinetics testing. A cell suspension that had been subcultured (5% CO2, 37°C) using DMEM medium (containing 10% FBS and 1% penicillin streptomycin) was subcutaneously injected into the mouse dorsal region (1 × 10^6 cells/mouse, DMEM). At 10 days after administration, the tumor size was randomized and each sample was administered to the mouse through the caudal vein (Gd conc. 5 mg/kg, n = 6). After administration, blood was collected and the organs (tumors, liver, spleen, kidneys, pancreases, skin, muscles and brains) were dissected after specified time periods (1, 4, 8, 24 and 72 hours). After sampling, the plasma was collected by centrifugal separation of the blood to prepare a sample. The collected organs were pretreated (heated at 70% nitric acid, heating at 90°C for ≥1 hour, followed by dilution with ultrapure water), and the Gd concentration was measured using ICP-MS.
• Apparatus: Agilent 7700x ICP-MS/Agilent • Pretreatment apparatus: EYELA MG-2300/Tokyo Rikakikai Co., Ltd. • Standard solution: Gadolinium standard solution (Gd1000) for ICP analysis/FujiFilm-Wako • Results: Figs. 18 to 25

Data set [5] is described as follows: Zeta potential (surface potential) measurement. The class given is physicochemical. To be noted: for surface charge (zeta potentials): ultrapure water. How it is done: as §1
• Apparatus: Malvern Zetasizer Nano ZSP/Malvem Panalytical • Solvent: Ultrapure water • Sample concentration : 10 mg/ml • Measuring temperature: room temperature • Results: Fig. 16 and Fig. 17

For data set [6], the system named is CT26 mouse colorectal cancer cells. Kind of data set: Gd-NCT experiment (neutron irradiation of CT26 tumor-bearing mice). The class given is in vivo. As to conditions: 3 administrations, Gd conc. 0.1 mmol/kg, neutron irradiation 10 minutes. How it is done:
A tumor-bearing model prepared by subcutaneously grafting CT26 mouse colorectal cancer cells into mice (Balb/c, 6-week-old, female, SLC) was used in an experiment for Gd-NCT. A CT26 cell suspension was injected into the mouse right femoral region (2 × 10^5 cells/mouse, DMEM). After approximately 2 weeks, each sample was administered 3 times through the caudal vein of the mouse (after 0, 24 and 48 hours, Gd conc. 0.1 mmol/kg, n = 5). A PBS-administered group was used as a comparative control. At 72 hours after the first administration, the holder in which the mouse had been placed was set on a 5 mm-thick thermoplastic sheet containing 40 wt% ^6LiF (96% ^6Li) for shielding of thermal neutrons and irradiated with neutron rays for 10 minutes only at the tumor site of the right femoral region (5 MW, Kyoto University Research Reactor, fluence: 2.87 × 10^12 to 3.29 × 10^12 thermal neutron/cm^2, 5.10 × 10^11 to 5.86 × 10^11 epithermal neutron/cm^2). The antitumor effect was confirmed by time-dependent change in tumor volume, and toxicity was confirmed by change in mouse body weight.

Data set [7] has the same test system. Put plainly: MRI R1 mapping in CT26 tumor-bearing mice. The class given is in vivo. To be noted: for tumor/muscle ratio (T/M ratio) of the relaxation rate: Gd conc. 0.1 mmol/kg. As to the method: CT26 mouse colorectal cancer cells were subcutaneously grafted into mice (BALB/c nu/nu mice, 5-week-old, female, SLC) to create a tumor-bearing model which was used for MRI. A CT26 cell suspension that had been subcultured (5% CO2, 37°C) using DMEM medium (containing 10% FBS and 1% penicillin streptomycin) was subcutaneously injected into the mouse dorsal region (1 × 10^6 cells/mouse, Hank's balanced salt solution). At 1 week after administration, the tumor size was randomized, and then each sample was administered to the mouse through the caudal vein (Gd conc. 0.1, 0.05, 0.03 and 0.01 mmol/kg). MRI imaging (R1 mapping, T1-weighted image) was carried out under isoflurane anesthesia.
• Apparatus: Horizontal 1.0 T Bruker ICON MRI system/Bruker • Pulse sequence: Rapid acquisition with relaxation enhancement (RARE)-based inversion recovery sequence • Measuring conditions: Echo time (TE) = 10 ms; [formula] Repetition time (TR) = 10,000 ms; [formula] [formula] RARE Factor = 4; [formula] Field of view (FOV) = 28.0 × 16.0 mm^2; [formula] Slice thickness = 2.0 mm; [formula] Pixel count = 70 × 40; [formula] Resolving power (in-planeresolution) = 0.4 × 0.4 mm^2 [formula] Number of excitations = 1; [formula] • Fat suppression mode: OFF; • FOV saturation: ON • Measuring points: Before administration and 20, 40, 60 minutes and 24 hours after administration • Results: Figs. 38 to 42

Data set [8] is described as follows: TEM particle size measurement. Type of data set: physicochemical. To be noted: by folding; method not given. How it is done: as §1
• Apparatus: JEM-2100F TEM system/JEOL Corp. • Solvent: Ultrapure water • Pretreatment: Stained on formvar/carbon supported-copper grids • Measuring temperature: room temperature • Results: Fig. 14 and Fig. 15

Data set [9] in a line: Pharmacokinetics test for Gd-NCT (single or 3 administrations), Gd by ICP-MS. The class given is in vivo, mice. As to the method: A tumor-bearing model was prepared by subcutaneous grafting of CT26 mouse colorectal cancer cells into mice (Balb/c, 6-week-old, female, SLC) by the same procedure as for the SMDC-Gd pharmacokinetics test, and a pharmacokinetics test was conducted as an experiment for Gd-NCT. In this case, however, each sample was administered once or 3 times through the caudal vein of the mouse (0, 24 and 48 hours afterwards, Gd conc. 0.1 mmol/kg, n = 5), with blood collection and organ dissection and collection (tumors, liver and kidneys) 24 hours after the final administration. Each organ was pretreated by the same procedure as described above, and the Gd concentration was also measured in the same manner using ICP-MS. • Apparatus: Agilent 7700x ICP-MS/Agilent • Pretreatment apparatus: EYELA MG-2300/Tokyo Rikakikai Co., Ltd. • Standard solution: Gadolinium standard solution (Gd1000) for ICP analysis/FujiFilm-Wako • Results: Fig. 46 and Fig. 47

Where [10] appears, read: 3 doses given every 24 hours, after the final 24 hours.

Consider BZA100-PEGA80-CEA20(DOTA)9 [TP5], for which the “Kratky plot (particle formation)” value in [1] is “form particles in aqueous solution”. Further, in data set [2], the “longitudinal relaxivity (r1)” value is “higher”. The DA in data set [3] worked out at 0.88.

As to BZA100-PEGA70-CEA30(DOTA)17 [TP6], the “Kratky plot (particle formation)” value in [1] is listed as “form particles in aqueous solution”. Also, in data set [2], the “longitudinal relaxivity (r1)” value is “higher”. In data set [4], the “blood retentivity and blood clearance” value is given as “more rapid”; the “accumulation in different organs” value is “accumulated more abundantly in the liver, spleen and kidneys”. In [3], the DA was found to be 0.53. In addition, in data set [5], the zeta potential is recorded as -37 mV and the “surface charge (zeta potentials)” value was “negative”.

As to `O=C([O-])CN1CCN(CC(=O)[O-])CCN(CC(=O)O)CCN(CC(=O)[O-])CC1.[Gd+3]` [Gd-DOTA, gadoteric acid], in data set [6], the “antitumor effect by Gd-NCT (tumor volume)” value was “failed to exhibit sufficient antitumor activity”. The “tumor/muscle ratio (T/M ratio) of the relaxation rate” value (“tumor/muscle ratio (T/M ratio)” below) in data set [7] (1 hour after administration) came out at 0.77. In [4], the “blood retentivity and blood clearance” value is “rapidly excreted from the blood”; the “tumor accumulation (Gd concentration)” value is “low”.

With PEGA104-CEA30(DOTA)12 [PEGA-Gd12], in data set [2], the “longitudinal relaxivity (r1)” value is listed as “higher”.

On to PEGA124-CEA10(DOTA)4 [PEGA-Gd4], for which the “Kratky plot (particle formation)” value in data set [1] is listed as “no peak could be confirmed”. Also, the “longitudinal relaxivity (r1)” value in data set [2] was “higher”. The R1 value result in [7] (during the 24 hours, compared with SMDC-Gd4) was “consistently lower than SMDC-Gd4”. Further, the “blood retentivity and blood clearance” value in data set [4] is reported as “equivalent”. Also, in [5], the “surface charge (zeta potentials)” value was “negative”.

Turning to BZA100-PEGA90-CEA10(DOTA)4 [TP4], the “Kratky plot (particle formation)” value in data set [1] is “form particles in aqueous solution”. Also, the “longitudinal relaxivity (r1)” value in data set [2] is “higher”. Further, in data set [6], the “antitumor effect by Gd-NCT (tumor volume)” value is reported as “suppressed tumor growth” and the “change in body weight after Gd-NCT” value is listed as “without body weight loss”. The “tumor/muscle ratio (T/M ratio)” value in data set [7] (1 hour after administration) was determined as 1.17. Besides, the “contrast effect in tumor tissue” value in [7] (longitudinal relaxation rate of tumors) is reported as “high contrast effect”. In data set [7] (within 24 hours after administration), the “tumor/muscle ratio (T/M ratio)” value came out at 1.36. For the same compound, the diameter result in data set [8] was “about 6 nm”. Moreover, in [4], the “blood retentivity and blood clearance” value was “equivalent”; the “tumor accumulation (Gd concentration)” value was “at least twice that of SMDC-Gd17 and PEGA-Gd4”; the “accumulation in different organs” value is reported as “equivalent to typical nanomedicine”. The same compound showed a DA in data set [3] of 0.91. Moreover, in data set [5], the “surface charge (zeta potentials)” value was “negative”. In data set [9] (setting [10]), the “intratumoral Gd concentration” value was 91.2 ppm and the “intratumoral concentration in terms of ^157Gd groups” value is 14.3 ppm. Moreover, the “intratumoral concentration in terms of ^157Gd groups” value in [9] (single dose, 24 hours after injection) came to 6.4 ppm. Moreover, the “intratumoral Gd concentration” value in data set [9] (single dose, 24 hours after injection, Gd conc. 0.1 mmol/kg) came to 41.2 ppm.
